Data from article PMC2995063.

Experiments:
Test in all cases: protection of ribosome-bound eEF2 from [14C]ADP-ribosylation by diphtheria toxin
[1] = target: Salt washed yeast 80S ribosomes with ribosomal protein L3 K241A/R244A (yeast (S. cerevisiae)) (UniProt P14126)
[2] = target: Salt washed yeast 80S ribosomes with ribosomal protein L3 R247A (yeast (S. cerevisiae)) (UniProt P14126)
[3] = target: Salt washed yeast 80S ribosomes with ribosomal protein L3 R232A (yeast (S. cerevisiae)) (UniProt P14126)
[4] = target: Salt washed yeast 80S ribosomes with ribosomal protein L3 K236A (yeast (S. cerevisiae)) (UniProt P14126)
[5] = target: Salt washed yeast 80S ribosomes with ribosomal protein L3 K236A/K237A (yeast (S. cerevisiae)) (UniProt P14126)
[6] = target: Salt washed yeast 80S ribosomes with ribosomal protein L3 K237A (yeast (S. cerevisiae)) (UniProt P14126)
[7] = target: Salt washed yeast 80S ribosomes with ribosomal protein L3 K236A/R247A (yeast (S. cerevisiae)) (UniProt P14126)
[8] = target: Salt washed yeast 80S ribosomes with wild-type ribosomal protein L3 (yeast (S. cerevisiae)) (UniProt P14126)

## Eukaryotic elongation factor 2 (eEF2), 6xHis-tagged (from UniProt P32324 1-842) (natural protein)
[1]
  Kd: 229 nM
[2]
  Kd: 46.6 nM
[3]
  Kd: 341 nM
[4]
  Kd: 312 nM
[5]
  Kd: 84 nM
[6]
  Kd: 342 nM
[7]
  Kd: 110 nM
[8]
  Kd: 383 nM
